Substrate in data set [1]: N=C(N)NCCC[C@H](NCCC(=O)O)C(=O)O
The data set is described as follows: purified protein. It counts as biochemical, Streptomyces clavuligerus. The settings on record: pH 8.8, 25 °C, saturating ATP (2-4 mM), ionic strength 0.1.

Substrate in data set [2]: O=C(O)C[C@@H]1CC[C@@H](C(=O)O)N1
The data set is described as follows: purified protein. The format is biochemical, Streptomyces clavuligerus. The settings on record: pH 8.3, 25 °C, 2 mM ATP, ionic strength 0.1.

Changes are numbered by the printed parent chain. Numbers in names are those of the source.

B1: β-LS (β-lactam synthetase) (Streptomyces clavuligerus; Y348F) (protein)
chain: MGAPVLPAAFGFLASARTGGGRAPGPVFATRGSHTDIDTPQGERSLAATLVHAPSVAPDRAVARSLTGAPTTAVLAGEIYNRDELLSVLPAGPAPEGDAELVLRLLERYDLHAFRLVNGRFATVVRTGDRVLLATDHAGSVPLYTCVAPGEVRASTEAKALAAHRDPKGFPLADARRVAGLTGVYQVPAGAVMDIDLGSGTAVTHRTWTPGLSRRILPEGEAVAAVRAALEKAVAQRVTPGDTPLVVLSGGIDSSGVAACAHRAAGELDTVSMGTDTSNEFREARAVVDHLRTRHREITIPTTELLAQLPYAVWASESVDPDIIEYLLPLTALYRALDGPERRILTGFGADIPLGGMHREDRLPALDTVLAHDMATFDGLNEMSPVLSTLAGHWTTHPYWDREVLDLLVSLEAGLKRRHGRDKWVLRAAMADALPAETVNRPKLGVHEGSGTTSSFSRLLLDHGVAEDRVHEAKRQVVRELFDLTVGGGRHPSEVDTDDVVRSVADRTARGAA
For the protein B1, in “purified protein [1]”, the Km came out at 1400 ± 200 µM, the kcat was determined as 0.155 ± 0.007 s⁻¹ and the kcat/Km was found to be 110 ± 20 M⁻¹ s⁻¹.

B2: β-LS (β-lactam synthetase) (Streptomyces clavuligerus; E382D) (protein)
chain: B1 chain with F348Y, E382D
With B2, in “purified protein [1]”, the Km was found to be 2800 ± 200 µM, the kcat was determined as 0.193 ± 0.006 s⁻¹ and the kcat/Km amounted to 69 ± 6 M⁻¹ s⁻¹.

B3: β-LS (β-lactam synthetase) (Streptomyces clavuligerus) (protein)
chain: B1 chain with F348Y
For B3, in “purified protein [2]”, the Km turned out to be 4900 ± 700 µM and the kcat was determined as 0.026 ± 0.002 s⁻¹.

B4: β-LS (β-lactam synthetase) (Streptomyces clavuligerus; Y348A) (protein)
chain: B1 chain with F348A
Regarding B4, in the data set “purified protein [1]”, the Km was 190 ± 20 µM, the kcat is 0.0082 ± 0.0002 s⁻¹ and the kcat/Km was determined as 43 ± 4 M⁻¹ s⁻¹.

(Values after paper PMC2833280.)
